Where two headings read alike, the source gives them in different places.
T1: human NPR1 (hNPR1) with a C-term myc and FLAG tag, stably expressed on HEK293 cells (human, UniProt P16066 33-1061)
T1 sequence: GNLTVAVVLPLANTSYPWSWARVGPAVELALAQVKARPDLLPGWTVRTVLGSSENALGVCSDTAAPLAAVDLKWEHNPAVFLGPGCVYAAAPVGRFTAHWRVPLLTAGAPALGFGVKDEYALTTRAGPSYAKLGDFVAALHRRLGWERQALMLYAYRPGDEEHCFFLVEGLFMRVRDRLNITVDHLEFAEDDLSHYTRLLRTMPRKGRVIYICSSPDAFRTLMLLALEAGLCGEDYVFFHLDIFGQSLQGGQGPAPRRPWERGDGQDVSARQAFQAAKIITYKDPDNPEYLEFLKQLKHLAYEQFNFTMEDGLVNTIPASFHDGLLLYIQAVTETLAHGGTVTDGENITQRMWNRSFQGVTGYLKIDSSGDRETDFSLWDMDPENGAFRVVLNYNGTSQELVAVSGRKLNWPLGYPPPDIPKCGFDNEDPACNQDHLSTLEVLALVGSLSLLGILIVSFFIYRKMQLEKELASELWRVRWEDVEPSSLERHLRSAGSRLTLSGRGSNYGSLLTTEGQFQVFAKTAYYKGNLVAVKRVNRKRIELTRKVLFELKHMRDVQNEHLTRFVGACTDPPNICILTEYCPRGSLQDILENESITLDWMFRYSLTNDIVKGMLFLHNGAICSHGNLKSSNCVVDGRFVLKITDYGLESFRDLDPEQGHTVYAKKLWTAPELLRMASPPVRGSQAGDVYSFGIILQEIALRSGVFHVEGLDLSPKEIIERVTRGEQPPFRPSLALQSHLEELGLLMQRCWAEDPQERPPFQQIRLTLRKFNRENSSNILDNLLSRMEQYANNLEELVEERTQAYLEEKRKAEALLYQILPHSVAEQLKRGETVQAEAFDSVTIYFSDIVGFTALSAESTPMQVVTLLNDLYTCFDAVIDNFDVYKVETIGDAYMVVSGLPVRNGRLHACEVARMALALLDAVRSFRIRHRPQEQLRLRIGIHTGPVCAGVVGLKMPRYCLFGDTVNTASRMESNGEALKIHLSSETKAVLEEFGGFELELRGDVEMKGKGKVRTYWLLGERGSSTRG

B1: R5381 (antibody, V domains shown)
VH: QVQLVQSGAEVKKPGASVTVSCKASGYTFTDYYMHWVRQAPGQGLEWMGWIKPNSGGTNSAQRFQGRITMTWDTSISTAYMELSRLRSDDTAVYYCSRGGPVMNYYYYYGMDVWGQGTTVTVSS
VL: NIQMTQSPSSLSASVGDRVTITCRASQSIDSYLNWYQQKPGKAPKLLIYVASSLQSGVPSRFSGSGSGKDFTLTISSLQPEDFATYYCQQSYSIPTFGQGTRLEIKR
B2: REGN6581 (antibody, human IgG4 S228P, kappa, V domains shown)
VH: QVQLQESGPGLVKPSETLSLTCTVSGASISTYYWSWIRQPPGKGLEWIGYIYYSGTTNYNPSLKSRVTISVDTSKNQFSLKLSSVTAADTAVYYCARDRGGYDGEWGQGTLVTVSS
VL: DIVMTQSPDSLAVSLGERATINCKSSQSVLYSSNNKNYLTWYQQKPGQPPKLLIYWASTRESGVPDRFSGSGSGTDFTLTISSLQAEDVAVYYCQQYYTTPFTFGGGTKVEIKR
notes: Bivalent human IgG4; also called bivalent anti-R5381 mAb; anti-idiotype antibody
B3: REGN9035 (antibody, human IgG4 S228P, kappa)
heavy: QVQLVESGGGVVQPGRSLRLSCAASGFTFSSYGMHWVRQAPGKGLEWVALIWFDGGYKYYADSVKGRFTISRDNSKNTLYLQMNSLRADDTAVYYCARGSAAAGHVPFDYWGQGILVTVSSASTKGPSVFPLAPCSRSTSESTAALGCLVKDYFPEPVTVSWNSGALTSGVHTFPAVLQSSGLYSLSSVVTVPSSSLGTKTYTCNVDHKPSNTKVDKRVESKYGPPCPPCPAPEFLGGPSVFLFPPKPKDTLMISRTPEVTCVVVDVSQEDPEVQFNWYVDGVEVHNAKTKPREEQFNSTYRVVSVLTVLHQDWLNGKEYKCKVSNKGLPSSIEKTISKAKGQPREPQVYTLPPSQEEMTKNQVSLTCLVKGFYPSDIAVEWESNGQPENNYKTTPPVLDSDGSFFLYSRLTVDKSRWQEGNVFSCSVMHEALHNRFTQKSLSLSPGK
chain: not shown
light: not shown
notes: Monovalent (one-armed) human IgG4: one full heavy chain, one light chain and one truncated heavy chain (Fc); also called one-armed anti-R5381 antibody; monovalent anti-R5381 mAb
B4: REGN9037 (antibody, human IgG4 S228P, kappa)
heavy: QVQLQESGPGLVKPSETLSLTCTVSGASISTYYWSWIRQPPGKGLEWIGYIYYSGTTNYNPSLKSRVTISVDTSKNQFSLKLSSVTAADTAVYYCARDRGGYDGEWGQGTLVTVSSASTKGPSVFPLAPCSRSTSESTAALGCLVKDYFPEPVTVSWNSGALTSGVHTFPAVLQSSGLYSLSSVVTVPSSSLGTKTYTCNVDHKPSNTKVDKRVESKYGPPCPPCPAPEFLGGPSVFLFPPKPKDTLMISRTPEVTCVVVDVSQEDPEVQFNWYVDGVEVHNAKTKPREEQFNSTYRVVSVLTVLHQDWLNGKEYKCKVSNKGLPSSIEKTISKAKGQPREPQVYTLPPSQEEMTKNQVSLTCLVKGFYPSDIAVEWESNGQPENNYKTTPPVLDSDGSFFLYSRLTVDKSRWQEGNVFSCSVMHEALHNRFTQKSLSLSPGK
chain: not shown
light: not shown
notes: as for B3
B5: REGN6580 (antibody, human IgG4 S228P, kappa, V domains shown)
VH: QVQLVESGGGVVQPGRSLRLSCAASGFTFSSYGMHWVRQAPGKGLEWVALIWFDGGYKYYADSVKGRFTISRDNSKNTLYLQMNSLRADDTAVYYCARGSAAAGHVPFDYWGQGILVTVSS
VL: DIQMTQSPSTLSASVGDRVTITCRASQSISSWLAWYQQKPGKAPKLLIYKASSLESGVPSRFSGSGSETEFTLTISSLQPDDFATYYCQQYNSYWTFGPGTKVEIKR
notes: as for B2

What was measured:
[1] = target: T1, human NPR1 (hNPR1) with a C-term myc …; experiment: cell-based or functional assay
R5381 [2] = target: B1; experiment: cell-based or functional assay
REGN1945 [3] = experiment: cell-based or functional assay
R5381 [4] = target: B1; experiment: blocking ELISA: antibody pre-bound to 95 pM Biotin-R5381, binding to coated hNPR1.ecto.mmh read
Procedure: After 1 hour, incubation at RT, the pre-bind reaction mix was transferred to microtiter plates coated with hNPR1.ecto.mmh. The microtiter plates were incubated at RT for 1 hour and then washed with plate washing solution. […] The plates were incubated with detection protein for 1 hour at RT and then washed with plate washing solution. The assay plates were developed with TMB colorimetric substrates according to the manufacturer's recommended procedure.
The absorbance at 450 nm for each well was recorded and plotted as the function of the concentration of antibody. Data was analyzed in GraphPad Prism software using a four-parameter logistic equation over an 11-point dose response curve and IC₅₀ values were calculated.

H2aM22033N [5] = target: T2, H2aM22033N; experiment: SPR Biacore T200, H2aM22033N captured via anti-mouse Fc, analyte injected, 37 C, pH 7.4
T2 construct: also called parental hybridoma of R5381
Procedure: (§1) All binding studies were performed in 10 mM HEPES, 150 mM NaCl, 3 mM EDTA, and 0.05% v/v Surfactant Tween-20, pH 7.4 (HBS-ET) running buffer at 25° C. and 37° C. The Biacore CM5 sensor chip surface was first derivatized by amine coupling with anti-mouse Fc specific antibody (GE Healthcare, # BR100838) to capture H2aM22033N. […] The dissociation of different mAbs bound to H2aM22033N was monitored for 10 minutes in HBS-ET running buffer. At the end of each cycle, the H2aM22033N capture surface was regenerated using a 60 sec injection of 10 mM Glycine-HCl, pH 1.5. The association rate (kₐ) and dissociation rate (kd) were determined by fitting the real-time binding sensorgrams to a 1:1 binding model with mass transport limitation using Scrubber 2.0c curve-fitting software. Binding dissociation equilibrium constant (KD) and dissociative half-life (t½) were calculated from the kinetic rates as:

R5381 [6] = target: B1; experiment: cell-based or functional assay; remark: listed apart in the source
H2aM22033N [7] = target: T2, H2aM22033N; experiment: SPR Biacore T200, H2aM22033N captured via anti-mouse Fc, analyte injected, 25 C, pH 7.4
Procedure: as §1

H2aM22033N [8] = target: T2, H2aM22033N; experiment: SPR Biacore 4000, H2aM22033N captured via anti-mouse Fc, 37 C, association pH 7.4, dissociation pH 5.0
Procedure: (§2) All binding studies were performed at 37° C. using four running buffers, (i) PBS, 0.05% v/v Surfactant Tween-20, pH 7.4 (PBS-T-pH 7.4), (ii) PBS, 0.05% v/v Surfactant Tween-20, pH 6.5 (PBS-T-pH 6.5), (iii) PBS, 0.05% v/v Surfactant Tween-20, pH 6.0 (PBS-T-pH 6.0), and (iv) PBS, 0.05% v/v Surfactant Tween-20, pH 5.0 (PBS-T-pH 5.0).
(§3) The dissociation rate constants (kd) in four pH running buffers were determined by fitting the real-time binding sensorgrams to a 1:1 binding model using Scrubber 2.0c curve-fitting software. The dissociative half-life (t½) was calculated from the kd values as:

H2aM22033N [9] = target: T2, H2aM22033N; experiment: SPR Biacore 4000, H2aM22033N captured via anti-mouse Fc, 37 C, association pH 7.4, dissociation pH 7.4
Procedure: as §2, §3

H2aM22033N [10] = target: T2, H2aM22033N; experiment: SPR Biacore 4000, H2aM22033N captured via anti-mouse Fc, 37 C, association pH 7.4, dissociation pH 6.0
Procedure: as §2, §3

H2aM22033N [11] = target: T2, H2aM22033N; experiment: SPR Biacore 4000, H2aM22033N captured via anti-mouse Fc, 37 C, association pH 7.4, dissociation pH 6.5
Procedure: as §2, §3

R5381 [12] = target: B1; experiment: cell-based or functional assay; remark: listed apart in the source
REGN1945 [13] = experiment: cell-based or functional assay; remark: listed apart in the source

| C1q-CIC assay Final Value; 100 nM antibody + 100 nM antigen; Result Neg (R5381 [2]) [ug Eq/mL] | C1q-CIC assay Final Value; 1 uM antibody + 100 nM antigen; Result Neg (R5381 [2]) [ug Eq/mL] | % Blocking with 333.33 nM antibody (R5381 [4]) [%] | IC50 (R5381 [4]) [nM] | 100 nM Ag Bound (RU) (H2aM22033N [5]) | Kd (H2aM22033N [5]) [nM] | koff (H2aM22033N [5]) [s⁻¹] | kon (H2aM22033N [5]) [M⁻¹ s⁻¹] | t1/2 (H2aM22033N [5]) [min] | IC50 of inhibition of 70 nM R5381-induced cGMP, 40 pM ANP (R5381 [6]) [M] | IC50 of inhibition of 70 nM R5381-induced cGMP, 80 pM BNP (R5381 [6]) [M] | IC50 of inhibition of 70 nM R5381-induced cGMP, no ligand (R5381 [6]) [nM] | Max Inh. (%) of 70 nM R5381-induced cGMP, 40 pM ANP (R5381 [6]) [%] | Max Inh. (%) of 70 nM R5381-induced cGMP, 80 pM BNP (R5381 [6]) [%] | Max Inh. (%) of 70 nM R5381-induced cGMP, no ligand (R5381 [6]) [%] | 100 nM Ag Bound (RU) (H2aM22033N [7]) | Kd (H2aM22033N [7]) [nM] | koff (H2aM22033N [7]) [s⁻¹] | kon (H2aM22033N [7]) [M⁻¹ s⁻¹] | t1/2 (H2aM22033N [7]) [min] | Binder | other results |
| --- | --- | --- | --- | --- | --- | --- | --- | --- | --- | --- | --- | --- | --- | --- | --- | --- | --- | --- | --- | --- | --- |
| – | – | – | – | – | – | – | – | – | – | – | – | – | – | – | – | – | – | – | – | B1 | cGMP accumulation (HTRF) EC50, no ligand [1]: 31.2 nM; cGMP accumulation (HTRF) EC50, with 40 pM ANP [1]: 2.07e-08 M; cGMP accumulation (HTRF) EC50, with 80 pM BNP [1]: 1.78e-09 M |
| 0.65 | 0.53 | 100 | 0.543 | 104 | 1.16 | 0.000367 | 317000 | 31 | 2.06e-08 | 3.5e-08 | 18 | 104 | 99 | 100 | 65 | 0.561 | 7.11e-05 | 127000 | 163 | B2 | C1q-CIC assay Final Value; 100 nM antibody + 100 nM antigen; Result Neg (REGN1945 [3]): 0.35 ug Eq/mL; C1q-CIC assay Final Value; 1 uM antibody + 100 nM antigen; Result Neg (REGN1945 [3]): 0.3 ug Eq/mL |
| – | – | 99.3 | 2.04 | 81 | 5.78 | 0.00086 | 149000 | 13 | 2.66e-08 | 4.13e-08 | 46 | 104 | 97 | 100 | 47 | 1.76 | 0.000132 | 75100 | 87 | B3 | koff (H2aM22033N [8]): 0.0197 s⁻¹; t1/2 (H2aM22033N [8]): 0.6 min; koff (H2aM22033N [9]): 0.000996 s⁻¹; t1/2 (H2aM22033N [9]): 12 min; koff (H2aM22033N [10]): 0.00294 s⁻¹; t1/2 (H2aM22033N [10]): 3.9 min; koff (H2aM22033N [11]): 0.00142 s⁻¹; t1/2 (H2aM22033N [11]): 8 min; C1q-CIC assay Final Value; 100 nM antibody + 100 nM antigen; Result Neg (R5381 [12]): 0.18 ug Eq/mL; C1q-CIC assay Final Value; 1 uM antibody + 100 nM antigen; Result Neg (R5381 [12]): 0.29 ug Eq/mL; C1q-CIC assay Final Value; 100 nM antibody + 100 nM antigen; Result Neg (REGN1945 [13]): 0.15 ug Eq/mL; C1q-CIC assay Final Value; 1 uM antibody + 100 nM antigen; Result Neg (REGN1945 [13]): 0.2 ug Eq/mL |
| 0.64 | 0.42 | 99 | 2.4 | 55 | 6.71 | 0.000738 | 110000 | 16 | 1.76e-08 | 3.81e-08 | 36.3 | 101 | 97 | 99 | 31 | 1.52 | 9.89e-05 | 65100 | 117 | B4 | C1q-CIC assay Final Value; 100 nM antibody + 100 nM antigen; Result Neg (REGN1945 [3]): 0.37 ug Eq/mL; C1q-CIC assay Final Value; 1 uM antibody + 100 nM antigen; Result Neg (REGN1945 [3]): 0.55 ug Eq/mL; koff (H2aM22033N [8]): 0.000664 s⁻¹; t1/2 (H2aM22033N [8]): 17 min; koff (H2aM22033N [9]): 0.000867 s⁻¹; t1/2 (H2aM22033N [9]): 13 min; koff (H2aM22033N [10]): 0.000811 s⁻¹; t1/2 (H2aM22033N [10]): 14 min; koff (H2aM22033N [11]): 0.000792 s⁻¹; t1/2 (H2aM22033N [11]): 15 min |
| – | – | 100 | 0.381 | 160 | 0.914 | 0.000424 | 464000 | 27 | 2.23e-08 | 3.32e-08 | 15.5 | 102 | 99 | 99 | 110 | 0.528 | 9.42e-05 | 178000 | 123 | B5 | C1q-CIC assay Final Value; 100 nM antibody + 100 nM antigen; Result Neg (R5381 [12]): 0.22 ug Eq/mL; C1q-CIC assay Final Value; 1 uM antibody + 100 nM antigen; Result Neg (R5381 [12]): 0.2 ug Eq/mL; C1q-CIC assay Final Value; 100 nM antibody + 100 nM antigen; Result Neg (REGN1945 [13]): 0.11 ug Eq/mL; C1q-CIC assay Final Value; 1 uM antibody + 100 nM antigen; Result Neg (REGN1945 [13]): 0.16 ug Eq/mL |
